Results reported in publication doi:10.1101/2025.01.27.635082 (bioRxiv, 2025).

B1: mouse phosphomannomutase 2 (Pmm2) (enzyme, UniProt Q9Z2M7 1-242, looked up)
chain: MATLCLFDMDGTLTAPRQKITEEMDGFLQKLRQKTKIGVVGGSDFEKLQEQLGNDVVEKYDYVFPENGLVAYKDGKLLCKQNIQGHLGEDVIQDLINYCLSYIANIKLPKKRGTFIEFRNGMLNVSPIGRSCSQEERIEFYELDKKEHIRQKFVADLRKEFAGKGLTFSIGGQISIDVFPEGWDKRYCLRHLEHAGYKTIYFFGDKTMPGGNDHEIFTDPRTVGYTVTAPEDTRRICEGLFP
B2: human phosphomannomutase 2 (hPMM2) (enzyme)
chain: MAAPGPALCLFDVDGTLTAPRQKITKEMDDFLQKLRQKIKIGVVGGSDFEKVQEQLGNDVVEKYDYVFPENGLVAYKDGKLLCRQNIQSHLGEALIQDLINYCLSYIAKIKLPKKRGTFIEFRNGMLNVSPIGRSCSQEERIEFYELDKKENIRQKFVADLRKEFAGKGLTFSIGGQISFDVFPDGWDKRYCLRHVENDGYKTIYFFGDKTMPGGNDHEIFTDPRTMGYSVTAPEDTRRICELLFS

Biological target: the molecule itself
Assay: SEC

Protein	stoichiometry N
B1	2
B2	2
